Laboratory results from the nanobody polyreactivity screen of Harvey et al. (2022).

Experiment: yeast display, Sf9 membrane polyspecificity reagent, FACS + sequencing; frameworks hold sequencing errors
Outline: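 A nanobody's polyreactivity label depends on the gate it was sorted from. Yeast display cells were stained with 10% biotinylated, detergent-solubilized Sf9 membrane reagent for 1 hour at 4 °C, enriched on streptavidin microbeads and sorted by FACS. The low and high (top ~1%) gates were set on anti-HA fluorescence for expression and streptavidin fluorescence for reagent binding.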

| Sequence | polyreactivity (PSR sort gate) |
| --- | --- |
| QVQLVESGGGLVQAGGSLRLSCAASGITFYGYAMGWYRQAPGKERELVAAISGNGGRTYYADSVKGRFTISRDNAKNTVYLQMNSLKPEDTAVYYCNVKVRSRRTGDRYDYWGQGTQVTVSS | high polyreactivity |
| QVQLVESGGGLVQAGGSLRLSCAASGITFYGYAMGWYRQAPGKERELVAAISKSGGSTHYADSVKGRFTISRDNAKNTVYLQMNSLKPEDTAVYYCAAAYWTRLRRMDYWGQGTQVTVSS | low polyreactivity |
| QVQLVESGGGLVQAGGSLRLSCAASGITFYGYAMGWYRQAPGKERELVARISSGGTTKYADSVKGRFTISRDNAKNTVYLQMNSLKPEDTAVYYCAVGGSWWYYGFYYWGQATQVTVSS | high polyreactivity |
| QVQLVESGGGLVQAGGSLRLSCAASGITFYGYAMGWYRQAPGKERELVARITISGRTNYADYVKGRFTISRDNAKNTVYLQMNSLKPEDTAVYYCATLVHWSYPYYYWGQGTQVTVSS | high polyreactivity |
| QVQLVESGGGLVQAGGSLRLSCAASGITFYGYAMGWYRQAPGKERELVASINSTGSTNYADSVKGRFTISRDNAKNTVYLQMNSLKPDDTAVYYCAARYRDGYRSKRKFGYWGQGTQVTVSS | high polyreactivity |
| QVQLVESGGGLVQAGGSLRLSCAASGITFYGYAMGWYRQAPGKERELVAVITSSGSSTYYADSVKGRFTISRDNAKNTVYLQMNSLTPEDTAVYYCNARPGRRSLRSRTYDYWGQGTQVTVSS | high polyreactivity |
| QVQLVESGGGLVQAGGSLRLSCAASGITFYGYTIGWYRQAPGKERELVATITRGGSTYYADSVKGRFTISLDNAKNTVYLQMNSLKPEDTAGYYCAAESQYDYGVEFDYWGQGTQVTVSS | low polyreactivity |
| QVQLVESGGGLVQAGGSLRLSCAASGITFYGYTMGWYRQAPGKERELVAAITYFGSTYYADSVKGRFTISRDNAKNTVYLQMNSLKPEDTAVYYCAAQRFRSGWFGYWGQGTQVTVSS | high polyreactivity |
| QVQLVESGGGLVQAGGSLRLSCAASGITFYHYAMGWYRQAPGKERELVAAITRSGGRTYYADSVKGRFTISRDNAKNTVFLQMNSLKPEDTAVYYCATDDRQGYFRSPREYDYWGQGTQVTVSS | high polyreactivity |
| QVQLVESGGGLVQAGGSLRLSCAASGITFYKNAMGWYRQAPGKERELVAAISSGGGTTYADSVKGRFTISRDNAKNTVYLQMNSLKPEDTAVYYCAADRRYYWYNYWGLGTQVTVSS | high polyreactivity |
| QVQLVESGGGLVQAGGSLRLSCAASGITFYKYVMGWYRQAPGKERELVAAISSVGSTYYADSVKGRFTISRDNAKNTVYLQMNSLKPEDTAVYYCNARVYYSTTRYYVRVDYWGQGTQVTVSS | high polyreactivity |
| QVQLVESGGGLVQAGGSLRLSCAASGITFYKYVMGWYRQAPGKETELVAAISSVGSTYYADSVKGRFTISRDNAKNTVYLQMNSLKPEDTAVYYCAAKYWKCYHYGFGYWGQGTQVTVSS | high polyreactivity |
| QVQLVESGGGLVQAGGSLRLSCAASGITFYLNAMVWYRQAPGKERELVADITVSGGSTYYADSVKGRFTISRDYAKNTVYLQMNRLKPEDTAVYYCAADLTISYSQEYYYWGQGTQVTVSS | low polyreactivity |
| QVQLVESGGGLVQAGGSLRLSCAASGITFYPYAMGWYRQAPGKERELVAAITGSGGRTYYADSVKGRFTISRDNAKNTVYLQMNSLKPEDTAVYYCAKVARYPDMGYWGQGTQVTVSS | high polyreactivity |
| QVQLVESGGGLVQAGGSLRLSCAASGITFYPYAMGWYRQAPGKERELVASISWSGGSTYYADSVKGRFTISRDNAKNTVYLQMNSLKPEDTAVFYCNAEYWLPYYPDYDYWGQGTQVTVSS | low polyreactivity |
| QVQLVESGGGLVQAGGSLRLSCAASGITFYRNAMGSYRQAPGKERELVADIDVGDGTYYADSVKGRFTISRDNCKNTVYLQMNSLKPEDTAVYYCNKTFLFLEYDSWGQGTQVTVSS | low polyreactivity |
| QVQLVESGGGLVQAGGSLRLSCAASGITFYRYAMGWSRQAPGKERELVAAITWSGGSTYYADSVKGRFTISRDNAKNTVYLQMNSLKPEDTAVYYCAAVLYSPDFFGNYDYWGQGTQVTVSS | low polyreactivity |
| QVQLVESGGGLVQAGGSLRLSCAASGITFYRYAMGWYREAPGKERELVAAISRSGGGTHYADTVKGRFTISRDNAMNTVYLQMYCLKPEDTAVFYCAASAYSYDYWGQGNQVTVSS | high polyreactivity |
| QVQLVESGGGLVQAGGSLRLSCAASGITFYRYAMGWYRQAPGKERELVAAITWSGGSTYYADSVKGRFTISRDNAKNTVYLQMNSLKPEDTAVYYCAVDYTPEDWGDDYWGQGTQVTVSS | low polyreactivity |
| QVQLVESGGGLVQAGGSLRLSCAASGITFYRYAMGWYRQSPGKETQLVAAIRRAGSTYYADSVKGRFTISRDNAKNTVYLQMNSLKPEDTAVYYCAAPYRLEPLSTHGSWGQGTQVTVSS | high polyreactivity |
| QVQLVESGGGLVQAGGSLRLSCAASGITFYRYAMRWYRQAPGKERELVAAISRSGGSTYYADSVKGRFTISRDNAKNTVYLQMNILKPEDTAVYYCAAYILGNRDGYDYWGQGTQVTVSS | high polyreactivity |
| QVQLVESGGGLVQAGGSLRLSCAASGITFYRYTMGWYRQAPGKERELVAAITWSGGSTYYADSVKGRFTISRDNAKNTVYLQMNSLKPEDTAVYYCAVYLPYSQRYVHYYYWGQGTQVTVSS | high polyreactivity |

| Sequence | polyreactivity (PSR sort gate) |
| --- | --- |
| QVQLVESGGGLVQAGGSLRLSCAASGITFYVYAMGWSRQAPGKEREFVAAISTRDGTTYAYSVKGRFTISRDNAKNTVYLQMNSLKPEDTAVYYCAAAYYYDGQQGDFDYWGQGSQVTVSS | low polyreactivity |
| QVQLVESGGGLVQAGGSLRLSCAASGITFYVYTMGWYRQAPGKERELVAAINGSGGSTNYADSVKGRFPISRDNAKNTVYLQMNSLKPDDTAVYYCAADWSLSLYDYWGQGTQVSVSS | low polyreactivity |
| QVQLVESGGGLVQAGGSLRLSCAASGITFYWYTMGLYRQAPGKERELVAAISSRGSSTRYADSVKGRFTISRDNAKNTVYLQMNSLKPEDTAVYYCAADDLSDGYYDEAYEDNYWGQGTQVTVSS | low polyreactivity |
| QVQLVESGGGLVQAGGSLRLSCAASGITFYWYTMGWYRQAPGKERELVADIDGDGGSTYYAVSVKGRFTISRDNAKNTVYLLMNSVKPEDTGVYFCAAQVWPWGYDYWGQGTQVTVSS | high polyreactivity |
| QVQLVESGGGLVQAGGSLRLSCAASGITFYYNAMGWYRQAPGKERELVAAISDGSSTNYADSVKGRFTISRDTAKNTVYLQMNSLKPEDTAVYYCNADLVLFPLTWPYYYWGQGTQVTVSS | low polyreactivity |
| QVQLVESGGGLVQAGGSLRLSCAASGITFYYNDMGWYRQAPGKERELVAAISSGGTTNYADSVKGRFTISRDNAKNTVYLQMNSLKPEDTAVYYCATGYAEPEWYPFVSDYDYWGQGTQVTVSS | low polyreactivity |
| QVQLVESGGGLVQAGGSLRLSCAASGITFYYYAMGWYRQAPGKLRELVARINSGGSTNYADSVKGRFTISRDNAKNTVYLQMNSLKPEDTAVYYCNAKFRFGTYKTPYDYWGQGTQVTVSS | low polyreactivity |
| QVQLVESGGGLVQAGGSLRLSCAASGITFYYYAMGWYRQEPGKERELVAAINWSGTSTYYADSVKGRFTISRDNAKNTVYLQMNSLKPEDTAVYYCNAERGRSFWWAYDYWGQGTQVTVSS | low polyreactivity |
| QVQLVESGGGLVQAGGSLRLSCAASGITFYYYGMGWYRQATGKERELVAAISTGGNTNYADSVKGRFTISRDNAKNTVYLQMNSLKPEDTAVYYCAASFASKYEYWGQGTQVTVSS | high polyreactivity |
| QVQLVESGGGLVQAGGSLRLSCAASGITFYYYVMGWYRQAPGKERELVAAIDSGDSTYYADSVKGRFTISRDNAKNTVYLQMNSLKPEDTAVYYCAVDYEADNELNGPDQEYGRDSWGQGTQVTVSS | low polyreactivity |
| QVQLVESGGGLVQAGGSLRLSCAASGITIRPYTMGWYRQAPGKERELVARISRRGGSTYYADSVKGRFTISRDNAKNTVYLQMNSLKPEDTAVYYCATRSRAHISPYDYWGQGTQVTVSS | high polyreactivity |
| QVQLVESGGGLVQAGGSLRLSCAASGITISGYAMGWYRQAPGKERELVAAISRRGGSTYYADSVKGRFTISRDNAKNTVYLQMNSLKPEDTAVYYCARYPSRNYNYWGQGTQVTVSS | high polyreactivity |
| QVQLVESGGGLVQAGGSLRLSCAASGITIVNYVMGWYRQAPGKERELVAAISIGGGTYYADSVKGRFTISRDNAKNTVYLQMNSLKPEDTAVYYCNASYGGLSFYIGVYVTGYYYWGQGTQVTVSS | low polyreactivity |
| QVQLVESGGGLVQAGGSLRLSCAASGITLAYNAMGLYRQAPGTEREFVAAIDVCGGRTYYADSVKGRFTISRDNAKNTVYLQMNSLKPEDTAVYYCAAADIIDHSFPYDYWGQGTQVTVSS | low polyreactivity |
| QVQLVESGGGLVQAGGSLRLSCAASGITLFYYAMGWYRQAPGKERELVAVISASGGSTYYADSVKGRFTISRDNAKNTVYIQMNSLKPEDTAVYYCAAVAYWRSSSWYYYWGQGTQVTVSS | high polyreactivity |
| QVQLVESGGGLVQAGGSLRLSCAASGITLGRYAMGWYRQAPGQERELVAAISSWSGGSTTYADSVKGRFTISRDNAKNTVYLQMNSLKPEDTAVYYCNARRYYGRYYLGHSDYDYWGQGTQVTVSS | high polyreactivity |
| QVQLVESGGGLVQAGGSLRLSCAASGITLGYYAMGWYRQAPGKERELVAAISYSSGSTYYADSVKGRFTIARDTAKNTVYLQMNSLKPEDTAVYYCAKYVTYYLPTYSPSGKHDYWGQVTQVTVSS | low polyreactivity |
| QVQLVESGGGLVQAGGSLRLSCAASGITLINYAMGWYRQAPGKERELVAAISTSGSSTYYADSVKGRFTISRDNAKNTVYLQMNSLKPEDTAVYYCAAELDVYSLFGYWGQGTQVTVSS | low polyreactivity |
| QVQLVESGGGLVQAGGSLRLSCAASGITLLYNAMGWYRQAPGKERELVAGITGRGGSTYYADSVKGRFTISRDNAKNTVSLQMNSLKPEDNAVYYCAATTDYRYVGRIVIRDDHWGQGTQVTVSS | low polyreactivity |
| QVQLVESGGGLVQAGGSLRLSCAASGITLLYYAMGWYRQAPGKERELVAAISRRGGSTYYADSVKGRFTISRDNAKNTVYLQMNSLKPEDTAVYYCAAYSPYGGYHYLYDYWGQGTQVTVSS | high polyreactivity |
| QVQLVESGGGLVQAGGSLRLSCAASGITLNRNAMGWYKQAPGKERELVARISRRGGTTYYADSVKGRFTISRDNAKNTVYLQLNSLKPEDSAVYYCAKVRRRWGYPSYSYPYGYWGQGTQVTVSS | high polyreactivity |
